{"source": "patent US20210337838A1", "about": "“RECOMBINANT EXPRESSION OF FUMONISIN AMINE OXIDASE” (priority 2018, published 2021)", "molecules": {"B1": {"name": "RID+AO: GST-tagged 597 amino acid A. niger enzyme with N-terminal Reactive Intermediate Deaminase domain and C-terminal amine oxidase domain (protein)", "chain": "MAPAPVLATSAYYAPGVVSSASKYLHVSGQPGTIEGTAPADYNSQIHLALVNLHRVLAATGATPRDVVKLTLYIVDYDPNNRLHTRPLQTWLAGHKPAITLVPVPQLAVPDWKFEIEATVAVPDSIPASLSLPSPTETTDVLVIGAGLSGLMAAETTLQSGHSCIVLEGRDRVGGKTWTCPLPSGTGVVDLGAAWINDTNQSMMYELARRAGADLIEQNTTGNCLLQREDGAITAFPYGQTPCITPQIVKEIEAIRDTAEQDCQSFSTSRPQSPALDSLSFLAYLHSRNASPIAAANASVWTRAMLGQEPQDISALYFLNYCKSGGGLLQMRSDRKHGAQYLRVRQGTQIFAKTLAESLPTDTIRFGQRVVGITQVQKGVNYVQTESGLVVKARKVICSVPTPVLKTIKFEPQLPAAKQLLVDSFRYGYYTKVMLSFRTAWWADRGFCGLAQSFVGPASIYRDTSSPEDGKWVLTAFLAGDAGRNWSALGSQRERELALLEQLGAIYGDKDLPKREFVEALGHEWSTEELSGWGCPCPALPPGVLTLAGDALREPFRDVHFVGTETAEEWKGYMEGAVRSGKRGAAEAVKGLTRSQL", "modifications": "GST tag; Aspergillus niger"}}, "assay": "Amplex red assay of RID+AO enzyme", "assay_type": "biochemical", "details": "80 nM enzyme, 25 μM FB1, 50 mM HEPES (pH 7), 150 mM NaCl", "data": [{"molecule": "B1", "values": [{"measurement": "activity towards fumonisins", "value": "no activity"}]}]}
